Consider 6 molecules from patent US12679878B2, “CRF2 receptor agonists and their use in therapy” (SANOFI, priority 2020, dated 2026).

Starred links: 1 amine or outer side, 2 acyl side, 3 side chain; linkers in the order of their positions; H or OH if unused. Non-standard residues stand in square brackets, D forms with d. Groups on a side chain read outwards from the residue. No end group written: not given here. *: point of attachment. C18 diacid = O=C(O)CCCCCCCCCCCCCCCCC(=O)*; γGlu = O=C(O)[C@H](CCC(=O)[*:2])N[*:1]; Palmitoyl = CCCCCCCCCCCCCCCC(=O)*; AEEA = NCCOCCOCC(=O)O; Aib = CC(C)(N)C(=O)O

This experiment deals with human corticotropin-releasing factor 2α (CRF2 α receptor) (human), Q13324. In words: cell-based or functional assay.
Chain of human corticotropin-releasing factor 2α (CRF2 α receptor) (human), Q13324 (Q13324 20-411): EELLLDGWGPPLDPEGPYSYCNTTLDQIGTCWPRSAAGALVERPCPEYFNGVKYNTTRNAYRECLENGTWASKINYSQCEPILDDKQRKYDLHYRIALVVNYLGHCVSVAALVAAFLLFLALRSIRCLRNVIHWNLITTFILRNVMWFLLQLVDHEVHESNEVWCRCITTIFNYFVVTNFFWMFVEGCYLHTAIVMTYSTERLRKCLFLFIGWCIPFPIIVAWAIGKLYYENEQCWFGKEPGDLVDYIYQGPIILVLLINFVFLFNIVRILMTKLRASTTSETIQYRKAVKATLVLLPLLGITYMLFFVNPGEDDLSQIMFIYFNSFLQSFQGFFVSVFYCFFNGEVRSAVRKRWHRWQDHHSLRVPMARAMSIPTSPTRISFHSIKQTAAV

B1: SEQ ID NO: 14 (peptide)
peptide: FTLSLDVPTKIK([γGlu-Palmitoyl])QKLLKQEKQRKQKQKAKTNAKILARV-NH2
modifications: N-terminus assumed
SMILES: CCCCCCCCCCCCCCCC(=O)N[C@@H](CCC(=O)NCCCC[C@H](NC(=O)[C@@H](NC(=O)[C@H](CCCCN)NC(=O)[C@@H](NC(=O)[C@@H]1CCCN1C(=O)[C@@H](NC(=O)[C@H](CC(=O)O)NC(=O)[C@H](CC(C)C)NC(=O)[C@H](CO)NC(=O)[C@H](CC(C)C)NC(=O)[C@@H](NC(=O)[C@@H](N)Cc1ccccc1)[C@@H](C)O)C(C)C)[C@@H](C)O)[C@@H](C)CC)C(=O)N[C@@H](CCC(N)=O)C(=O)N[C@@H](CCCCN)C(=O)N[C@@H](CC(C)C)C(=O)N[C@@H](CC(C)C)C(=O)N[C@@H](CCCCN)C(=O)N[C@@H](CCC(N)=O)C(=O)N[C@@H](CCC(=O)O)C(=O)N[C@@H](CCCCN)C(=O)N[C@@H](CCC(N)=O)C(=O)N[C@@H](CCCNC(=N)N)C(=O)N[C@@H](CCCCN)C(=O)N[C@@H](CCC(N)=O)C(=O)N[C@@H](CCCCN)C(=O)N[C@@H](CCC(N)=O)C(=O)N[C@@H](CCCCN)C(=O)N[C@@H](C)C(=O)N[C@@H](CCCCN)C(=O)N[C@H](C(=O)N[C@@H](CC(N)=O)C(=O)N[C@@H](C)C(=O)N[C@@H](CCCCN)C(=O)N[C@H](C(=O)N[C@@H](CC(C)C)C(=O)N[C@@H](C)C(=O)N[C@@H](CCCNC(=N)N)C(=O)N[C@H](C(N)=O)C(C)C)[C@@H](C)CC)[C@@H](C)O)C(=O)O
The molecule B1 showed an EC50 [nM], 0% HSA of 0.18 nM.

B2: SEQ ID NO: 141 (peptide)
peptide: IVLSLD[dV]PIKLK([AEEA-AEEA-γGlu-C18 diacid])QILLKQARQK[Aib]QRAQAEKNKRILERV-NH2
modifications: N-terminus assumed
SMILES: CC[C@H](C)[C@H](N)C(=O)N[C@H](C(=O)N[C@@H](CC(C)C)C(=O)N[C@@H](CO)C(=O)N[C@@H](CC(C)C)C(=O)N[C@@H](CC(=O)O)C(=O)N[C@@H](C(=O)N1CCC[C@H]1C(=O)N[C@H](C(=O)N[C@@H](CCCCN)C(=O)N[C@@H](CC(C)C)C(=O)N[C@@H](CCCCNC(=O)COCCOCCNC(=O)COCCOCCNC(=O)CC[C@H](NC(=O)CCCCCCCCCCCCCCCCC(=O)O)C(=O)O)C(=O)N[C@@H](CCC(N)=O)C(=O)N[C@H](C(=O)N[C@@H](CC(C)C)C(=O)N[C@@H](CC(C)C)C(=O)N[C@@H](CCCCN)C(=O)N[C@@H](CCC(N)=O)C(=O)N[C@@H](C)C(=O)N[C@@H](CCCNC(=N)N)C(=O)N[C@@H](CCC(N)=O)C(=O)N[C@@H](CCCCN)C(=O)NC(C)(C)C(=O)N[C@@H](CCC(N)=O)C(=O)N[C@@H](CCCNC(=N)N)C(=O)N[C@@H](C)C(=O)N[C@@H](CCC(N)=O)C(=O)N[C@@H](C)C(=O)N[C@@H](CCC(=O)O)C(=O)N[C@@H](CCCCN)C(=O)N[C@@H](CC(N)=O)C(=O)N[C@@H](CCCCN)C(=O)N[C@@H](CCCNC(=N)N)C(=O)N[C@H](C(=O)N[C@@H](CC(C)C)C(=O)N[C@@H](CCC(=O)O)C(=O)N[C@@H](CCCNC(=N)N)C(=O)N[C@H](C(N)=O)C(C)C)[C@@H](C)CC)[C@@H](C)CC)[C@@H](C)CC)C(C)C)C(C)C
As for B2, the EC50 [nM], 0% HSA was 0.03 nM and the EC50 [nM], 0.1% HSA stood at 0.97 nM.

B3: SEQ ID NO: 138 (peptide)
peptide: IVLSLD[dV]PIKLK([AEEA-AEEA-γGlu-C18 diacid])QILLKQERQKKQREKAEKNKQILAQV-NH2
modifications: N-terminus assumed
SMILES: CC[C@H](C)[C@H](N)C(=O)N[C@H](C(=O)N[C@@H](CC(C)C)C(=O)N[C@@H](CO)C(=O)N[C@@H](CC(C)C)C(=O)N[C@@H](CC(=O)O)C(=O)N[C@@H](C(=O)N1CCC[C@H]1C(=O)N[C@H](C(=O)N[C@@H](CCCCN)C(=O)N[C@@H](CC(C)C)C(=O)N[C@@H](CCCCNC(=O)COCCOCCNC(=O)COCCOCCNC(=O)CC[C@H](NC(=O)CCCCCCCCCCCCCCCCC(=O)O)C(=O)O)C(=O)N[C@@H](CCC(N)=O)C(=O)N[C@H](C(=O)N[C@@H](CC(C)C)C(=O)N[C@@H](CC(C)C)C(=O)N[C@@H](CCCCN)C(=O)N[C@@H](CCC(N)=O)C(=O)N[C@@H](CCC(=O)O)C(=O)N[C@@H](CCCNC(=N)N)C(=O)N[C@@H](CCC(N)=O)C(=O)N[C@@H](CCCCN)C(=O)N[C@@H](CCCCN)C(=O)N[C@@H](CCC(N)=O)C(=O)N[C@@H](CCCNC(=N)N)C(=O)N[C@@H](CCC(=O)O)C(=O)N[C@@H](CCCCN)C(=O)N[C@@H](C)C(=O)N[C@@H](CCC(=O)O)C(=O)N[C@@H](CCCCN)C(=O)N[C@@H](CC(N)=O)C(=O)N[C@@H](CCCCN)C(=O)N[C@@H](CCC(N)=O)C(=O)N[C@H](C(=O)N[C@@H](CC(C)C)C(=O)N[C@@H](C)C(=O)N[C@@H](CCC(N)=O)C(=O)N[C@H](C(N)=O)C(C)C)[C@@H](C)CC)[C@@H](C)CC)[C@@H](C)CC)C(C)C)C(C)C
As for B3, the EC50 [nM], 0% HSA is 0.06 nM and the EC50 [nM], 0.1% HSA was determined as 3.12 nM.

B4: SEQ ID NO: 137 (peptide)
peptide: IVLSLD[dV]PIKLK([AEEA-AEEA-γGlu-C18 diacid])QILLKQERQKKQREQAEKNKQILEQV-NH2
modifications: N-terminus assumed
SMILES: CC[C@H](C)[C@H](N)C(=O)N[C@H](C(=O)N[C@@H](CC(C)C)C(=O)N[C@@H](CO)C(=O)N[C@@H](CC(C)C)C(=O)N[C@@H](CC(=O)O)C(=O)N[C@@H](C(=O)N1CCC[C@H]1C(=O)N[C@H](C(=O)N[C@@H](CCCCN)C(=O)N[C@@H](CC(C)C)C(=O)N[C@@H](CCCCNC(=O)COCCOCCNC(=O)COCCOCCNC(=O)CC[C@H](NC(=O)CCCCCCCCCCCCCCCCC(=O)O)C(=O)O)C(=O)N[C@@H](CCC(N)=O)C(=O)N[C@H](C(=O)N[C@@H](CC(C)C)C(=O)N[C@@H](CC(C)C)C(=O)N[C@@H](CCCCN)C(=O)N[C@@H](CCC(N)=O)C(=O)N[C@@H](CCC(=O)O)C(=O)N[C@@H](CCCNC(=N)N)C(=O)N[C@@H](CCC(N)=O)C(=O)N[C@@H](CCCCN)C(=O)N[C@@H](CCCCN)C(=O)N[C@@H](CCC(N)=O)C(=O)N[C@@H](CCCNC(=N)N)C(=O)N[C@@H](CCC(=O)O)C(=O)N[C@@H](CCC(N)=O)C(=O)N[C@@H](C)C(=O)N[C@@H](CCC(=O)O)C(=O)N[C@@H](CCCCN)C(=O)N[C@@H](CC(N)=O)C(=O)N[C@@H](CCCCN)C(=O)N[C@@H](CCC(N)=O)C(=O)N[C@H](C(=O)N[C@@H](CC(C)C)C(=O)N[C@@H](CCC(=O)O)C(=O)N[C@@H](CCC(N)=O)C(=O)N[C@H](C(N)=O)C(C)C)[C@@H](C)CC)[C@@H](C)CC)[C@@H](C)CC)C(C)C)C(C)C
In turn, B4 displayed an EC50 [nM], 0% HSA of 0.04 nM and an EC50 [nM], 0.1% HSA of 1.78 nM.

B5: SEQ ID NO: 140 (peptide)
peptide: IVLSLD[dV]PIKLK([AEEA-AEEA-γGlu-C18 diacid])QILLEQARQK[Aib]QRAQAEKNKRILERV-NH2
modifications: N-terminus assumed
SMILES: CC[C@H](C)[C@H](N)C(=O)N[C@H](C(=O)N[C@@H](CC(C)C)C(=O)N[C@@H](CO)C(=O)N[C@@H](CC(C)C)C(=O)N[C@@H](CC(=O)O)C(=O)N[C@@H](C(=O)N1CCC[C@H]1C(=O)N[C@H](C(=O)N[C@@H](CCCCN)C(=O)N[C@@H](CC(C)C)C(=O)N[C@@H](CCCCNC(=O)COCCOCCNC(=O)COCCOCCNC(=O)CC[C@H](NC(=O)CCCCCCCCCCCCCCCCC(=O)O)C(=O)O)C(=O)N[C@@H](CCC(N)=O)C(=O)N[C@H](C(=O)N[C@@H](CC(C)C)C(=O)N[C@@H](CC(C)C)C(=O)N[C@@H](CCC(=O)O)C(=O)N[C@@H](CCC(N)=O)C(=O)N[C@@H](C)C(=O)N[C@@H](CCCNC(=N)N)C(=O)N[C@@H](CCC(N)=O)C(=O)N[C@@H](CCCCN)C(=O)NC(C)(C)C(=O)N[C@@H](CCC(N)=O)C(=O)N[C@@H](CCCNC(=N)N)C(=O)N[C@@H](C)C(=O)N[C@@H](CCC(N)=O)C(=O)N[C@@H](C)C(=O)N[C@@H](CCC(=O)O)C(=O)N[C@@H](CCCCN)C(=O)N[C@@H](CC(N)=O)C(=O)N[C@@H](CCCCN)C(=O)N[C@@H](CCCNC(=N)N)C(=O)N[C@H](C(=O)N[C@@H](CC(C)C)C(=O)N[C@@H](CCC(=O)O)C(=O)N[C@@H](CCCNC(=N)N)C(=O)N[C@H](C(N)=O)C(C)C)[C@@H](C)CC)[C@@H](C)CC)[C@@H](C)CC)C(C)C)C(C)C
Turning to B5, the EC50 [nM], 0% HSA worked out at 0.04 nM and the EC50 [nM], 0.1% HSA stood at 1.27 nM.

B6: SEQ ID NO: 139 (peptide)
peptide: IVLSLD[dV]PIKLK([AEEA-AEEA-γGlu-C18 diacid])QILLKQERQKKQRQQAEKNKQILAQV-NH2
modifications: N-terminus assumed
SMILES: CC[C@H](C)[C@H](N)C(=O)N[C@H](C(=O)N[C@@H](CC(C)C)C(=O)N[C@@H](CO)C(=O)N[C@@H](CC(C)C)C(=O)N[C@@H](CC(=O)O)C(=O)N[C@@H](C(=O)N1CCC[C@H]1C(=O)N[C@H](C(=O)N[C@@H](CCCCN)C(=O)N[C@@H](CC(C)C)C(=O)N[C@@H](CCCCNC(=O)COCCOCCNC(=O)COCCOCCNC(=O)CC[C@H](NC(=O)CCCCCCCCCCCCCCCCC(=O)O)C(=O)O)C(=O)N[C@@H](CCC(N)=O)C(=O)N[C@H](C(=O)N[C@@H](CC(C)C)C(=O)N[C@@H](CC(C)C)C(=O)N[C@@H](CCCCN)C(=O)N[C@@H](CCC(N)=O)C(=O)N[C@@H](CCC(=O)O)C(=O)N[C@@H](CCCNC(=N)N)C(=O)N[C@@H](CCC(N)=O)C(=O)N[C@@H](CCCCN)C(=O)N[C@@H](CCCCN)C(=O)N[C@@H](CCC(N)=O)C(=O)N[C@@H](CCCNC(=N)N)C(=O)N[C@@H](CCC(N)=O)C(=O)N[C@@H](CCC(N)=O)C(=O)N[C@@H](C)C(=O)N[C@@H](CCC(=O)O)C(=O)N[C@@H](CCCCN)C(=O)N[C@@H](CC(N)=O)C(=O)N[C@@H](CCCCN)C(=O)N[C@@H](CCC(N)=O)C(=O)N[C@H](C(=O)N[C@@H](CC(C)C)C(=O)N[C@@H](C)C(=O)N[C@@H](CCC(N)=O)C(=O)N[C@H](C(N)=O)C(C)C)[C@@H](C)CC)[C@@H](C)CC)[C@@H](C)CC)C(C)C)C(C)C
B6: the EC50 [nM], 0% HSA came out at 0.03 nM and the EC50 [nM], 0.1% HSA came to 1.31 nM.
